# Laboratory results: publication doi:10.1101/870667
# Read-outs that look alike come from different tables or passages of the source.
# Columns and labels:
# [1] = biological target: MLL1 core complex (MWRAD2 holo-complex) (human) (UniProt Q03164); experiment: AUC
# [2] = biological target: MLL1 core complex (MWRAD2 holo-complex) (human) (UniProt Q03164); experiment: AUC; remark: listed apart in the source
substance,measurement,setting,value
MLL1 core complex (MWRAD2 holo-complex) (from UniProt Q03164;P61964;Q15291;Q9UBL3-3;Q9C005),stoichiometry N,[1],2
same,stoichiometry N,[2],18
